# In the supplement of paper PMC10201428:
# ± gives the standard deviation of the averaged measurements.
# Columns and labels:
# [1] = test system: VchCAST RNA-guided transposition machinery (E. coli BL21(DE3) host, lacZ target); experiment: relative integration efficiency (T-RL orientation) vs wild-type transposon end (log2 (normalized fold change)); transposon end mutated: right end (5 bp flank + 75 bp right end); higher = more efficient transposition
# Outline: (§1)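 Barcode abundances in input plasmids and in genomic integration junctions were obtained by PCR amplification and Illumina sequencing. These came from E. coli BL21(DE3) co-transformed with a T7-driven effector plasmid and a pUC57 donor carrying 1549 left-end or 1849 right-end transposon variants, then plated with 0.1 mM IPTG at 37°C for 18 h. Relative integration efficiency is the output/input fold change, normalised to reference barcodes and log-transformed.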
# [2] = test system: VchCAST RNA-guided transposition machinery (E. coli BL21(DE3) host, lacZ target); experiment: relative integration efficiency (T-LR orientation) vs wild-type transposon end (log2 (normalized fold change)); transposon end mutated: right end (5 bp flank + 75 bp right end); higher = more efficient transposition
# Outline: as §1
Sequence,relative integration efficiency (log2) [1],relative integration efficiency (log2) [2]
ACATTTGTTGATACAACCATAAAATGATAATTACACCCATAAATTTCTAATTATCACACCCATAAATTGATATTGCCTCTGATCATAGTCAGACCAACATTGCTACGACCCGTATTCGCACCGACAC,-0.945 ± 0.17,-0.772 ± 0.23
ACATTTGTTGATACAACCATAAAATGATAATTACACCCATAACGGTATAATTATCACACCCATAAATTGATATTGCCTCTGATCATAGTCAGACCAACATTGCTACGACCCGTATTCGCACCGACAC,-1.01 ± 0.024,-1.21 ± 0.31
ACATTTGTTGATACAACCATAAAATGATAATTACACCCATAACGGTCGCCGGCGACACAAACGCCCGGTCGCGGTAAGAGGATCATAGTCAGACCAACATTGCTACGACCCGTATTCGCACCGACAC,-2.35 ± 0.24,0.674 ± 0.11
ACATTTGTTGATACAACCATAAAATGATAATTACACCCATAACGTGATAATTATCACACCCATAAATTGATATTGCCTCTGATCATAGTCAGACCAACATTGCTACGACCCGTATTCGCACCGACAC,0.496 ± 0.076,0.32 ± 0.18
ACATTTGTTGATACAACCATAAAATGATAATTACACCCATAATAACATAATTATCACACCCATAAATTGATATTGCCTCTGATCATAGTCAGACCAACATTGCTACGACCCGTATTCGCACCGACAC,-2.11 ± 0.092,-1.45 ± 0.04
ACATTTGTTGATACAACCATAAAATGATAATTACACCCATAATATGATAATTATCACACCCATAAATTGATATTGCCTCTGATCATAGTCAGACCAACATTGCTACGACCCGTATTCGCACCGACAC,-0.297 ± 0.039,-0.175 ± 0.045
ACATTTGTTGATACAACCATAAAATGATAATTACACCCATAATTTGATAATTACCACTCCCAATTTAACTATAACGCTCTGATCATAGTCAGACCAACATTGCTACGACCCGTATTCGCACCGACAC,-1.09 ± 0.25,2.36 ± 0.071
ACATTTGTTGATACAACCATAAAATGATAATTACACCCATACCGGGATAATTATCACACCCATAAATTGATATTGCCTCTGATCATAGTCAGACCAACATTGCTACGACCCGTATTCGCACCGACAC,-2.211 ± 0.0089,-2.1 ± 0.086
ACATTTGTTGATACAACCATAAAATGATAATTACACCCATACCGGTCGCCGGCGACACAAACGCCCGGTCGCGGTAAGAGGATCATAGTCAGACCAACATTGCTACGACCCGTATTCGCACCGACAC,-2.6 ± 0.11,0.296 ± 0.13
ACATTTGTTGATACAACCATAAAATGATAATTACACCCATACCTTGATAATTATCACACCCATAAATTGATATTGCCTCTGATCATAGTCAGACCAACATTGCTACGACCCGTATTCGCACCGACAC,-0.707 ± 0.089,-0.978 ± 0.071
ACATTTGTTGATACAACCATAAAATGATAATTACACCCATATTAAGATAATTATCACACCCATAAATTGATATTGCCTCTGATCATAGTCAGACCAACATTGCTACGACCCGTATTCGCACCGACAC,-0.6107 ± 0.0014,-0.688 ± 0.12
ACATTTGTTGATACAACCATAAAATGATAATTACACCCATATTTTGATAATTATCACACCCATAAATTGATATTGCCTCTGATCATAGTCAGACCAACATTGCTACGACCCGTATTCGCACCGACAC,-0.188 ± 0.015,0.00197 ± 0.1
ACATTTGTTGATACAACCATAAAATGATAATTACACCCATCAATTGATAATTATCACACCCCATTTAACTATAACGCTCTGATCATAGTCAGACCAACATTGCTACGACCCGTATTCGCACCGACAC,-1.68 ± 0.23,1.6 ± 0.24
ACATTTGTTGATACAACCATAAAATGATAATTACACCCATCAATTGATAATTATCCCACCCAATTTAACTATAACGCTCTGATCATAGTCAGACCAACATTGCTACGACCCGTATTCGCACCGACAC,-1.93 ± 0.31,1.54 ± 0.022
ACATTTGTTGATACAACCATAAAATGATAATTACACCCATCAATTGATAATTATCCCACCCCATTTAACTATAACGCTCTGATCATAGTCAGACCAACATTGCTACGACCCGTATTCGCACCGACAC,-2.54 ± 0.3,1.52 ± 0.21
ACATTTGTTGATACAACCATAAAATGATAATTACACCCATCCATTGATAATTATCACACCCATAAATTGATATTGCCTCTGATCATAGTCAGACCAACATTGCTACGACCCGTATTCGCACCGACAC,-1.21 ± 0.089,-1.63 ± 1
ACATTTGTTGATACAACCATAAAATGATAATTACACCCATCCCGGTCGCCGGCGACACAAACGCCCGGTCGCGGTAAGAGGATCATAGTCAGACCAACATTGCTACGACCCGTATTCGCACCGACAC,-2.64 ± 0.12,0.414 ± 0.23
ACATTTGTTGATACAACCATAAAATGATAATTACACCCATCCCGTGATAATTATCACACCCATAAATTGATATTGCCTCTGATCATAGTCAGACCAACATTGCTACGACCCGTATTCGCACCGACAC,-1.77 ± 0.12,-1.98 ± 0.74
ACATTTGTTGATACAACCATAAAATGATAATTACACCCATTAATTGATAATAATGACACCGAATTTAACTATAACGCTCTGATCATAGTCAGACCAACATTGCTACGACCCGTATTCGCACCGACAC,-1.51 ± 0.32,2.24 ± 0.16
ACATTTGTTGATACAACCATAAAATGATAATTACACCCATTAATTGATAATGATGACACCGAATTTAACTATAACGCTCTGATCATAGTCAGACCAACATTGCTACGACCCGTATTCGCACCGACAC,-1.4 ± 0.35,2.15 ± 0.056
ACATTTGTTGATACAACCATAAAATGATAATTACACCCATTAATTGATAATTGTGACACCGAATTTAACTATAACGCTCTGATCATAGTCAGACCAACATTGCTACGACCCGTATTCGCACCGACAC,-1.29 ± 0.37,2.21 ± 0.16
ACATTTGTTGATACAACCATAAAATGATAATTACACCCATTTATTGATAATTATCACACCCATAAATTGATATTGCCTCTGATCATAGTCAGACCAACATTGCTACGACCCGTATTCGCACCGACAC,-0.33 ± 0.029,-0.628 ± 0.89
ACATTTGTTGATACAACCATAAAATGATAATTACACCCATTTTATGATAATTATCACACCCATAAATTGATATTGCCTCTGATCATAGTCAGACCAACATTGCTACGACCCGTATTCGCACCGACAC,2.79 ± 0.74,2.63 ± 0.56
ACATTTGTTGATACAACCATAAAATGATAATTACACCCCGAAATTGATAATTATCACACCCATAAATTGATATTGCCTCTGATCATAGTCAGACCAACATTGCTACGACCCGTATTCGCACCGACAC,-3.14 ± 0.19,-2.51 ± 0.16
ACATTTGTTGATACAACCATAAAATGATAATTACACCCCGCCATTGATAATTATCACACCCATAAATTGATATTGCCTCTGATCATAGTCAGACCAACATTGCTACGACCCGTATTCGCACCGACAC,-3.5 ± 0.22,-2.56 ± 0.28
ACATTTGTTGATACAACCATAAAATGATAATTACACCCCGCCCGGTCGCCGGCGACACAAACGCCCGGTCGCGGTAAGAGGATCATAGTCAGACCAACATTGCTACGACCCGTATTCGCACCGACAC,-2.33 ± 0.061,0.746 ± 0.13
ACATTTGTTGATACAACCATAAAATGATAATTACACCCCTACATTGATAATTATCACACCCAATTTAACTATAACGCTCTGATCATAGTCAGACCAACATTGCTACGACCCGTATTCGCACCGACAC,-2.87 ± 0.33,0.306 ± 0.013
